# *1 amine or outer side, *2 acyl side, *3 side chain or, on linkers, in order; H or OH if unused. Primed or numbered codes have the meaning given here. Side-chain parts run from the residue outwards. [ ]: non-standard residue; d: D form. The star is where a group is joined. PEG8′ = 2-[2-[2-[2-[2-[2-[2-[2-[2-aminoethoxy]ethoxy]ethoxy]ethoxy]ethoxy]ethoxy]ethoxy]ethoxy]ethoxy]propanoyl; TTDS″ = 4-[3-[2-[2-(3-aminopropoxy)ethoxy]ethoxy]propylamino]-4-oxo-butanoyl; TtdDga = O=C(COCC(=O)[*:2])NCCCOCCOCCOCCCN[*:1]; γGlu = O=C(O)[C@H](CCC(=O)[*:2])N[*:1]; Pentadecanoyl = CCCCCCCCCCCCCCC(=O)*; Stearoyl = CCCCCCCCCCCCCCCCCC(=O)*; Palmitoyl = CCCCCCCCCCCCCCCC(=O)*; Myristoyl = CCCCCCCCCCCCCC(=O)*; αMeK = C[C@](N)(CCCCN)C(=O)O; Nle = CCCC[C@H](N)C(=O)O; PEG2′ = PEG2 spacer unit; Aib = CC(C)(N)C(=O)O
# T1: RXFP1 receptor (UniProt Q9HBX9 1-757, limits assumed)
# T1 sequence (looked up): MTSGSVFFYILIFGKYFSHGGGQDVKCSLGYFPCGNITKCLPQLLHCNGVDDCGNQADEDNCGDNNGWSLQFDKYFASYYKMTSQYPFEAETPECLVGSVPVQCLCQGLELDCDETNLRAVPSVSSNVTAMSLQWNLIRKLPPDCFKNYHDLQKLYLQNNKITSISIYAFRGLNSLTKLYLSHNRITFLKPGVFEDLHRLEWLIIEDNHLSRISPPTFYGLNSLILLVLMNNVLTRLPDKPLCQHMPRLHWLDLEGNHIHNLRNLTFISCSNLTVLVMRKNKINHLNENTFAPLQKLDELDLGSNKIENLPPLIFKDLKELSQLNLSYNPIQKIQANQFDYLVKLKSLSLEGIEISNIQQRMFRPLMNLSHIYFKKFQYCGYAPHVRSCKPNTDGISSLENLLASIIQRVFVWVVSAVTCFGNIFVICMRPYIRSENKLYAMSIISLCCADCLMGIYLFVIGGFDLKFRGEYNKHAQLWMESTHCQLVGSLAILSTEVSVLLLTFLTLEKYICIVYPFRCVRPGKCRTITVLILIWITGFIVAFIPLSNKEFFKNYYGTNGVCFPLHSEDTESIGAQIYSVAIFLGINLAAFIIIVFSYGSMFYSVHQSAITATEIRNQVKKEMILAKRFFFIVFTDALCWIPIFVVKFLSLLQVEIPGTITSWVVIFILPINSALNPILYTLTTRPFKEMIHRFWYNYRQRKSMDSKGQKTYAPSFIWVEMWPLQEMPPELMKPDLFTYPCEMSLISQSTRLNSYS
# B1: peptide of SEQ ID NO: 177 (peptide)
# peptide: Ac-LEGREKVRAQI[Aib][Aib]EGQSTWS[Aib]RKK(Ac)[TtdDga][TtdDga]K([γGlu-γGlu-γGlu-Palmitoyl])-NH2
# SMILES: CCCCCCCCCCCCCCCC(=O)N[C@@H](CCC(=O)N[C@@H](CCC(=O)N[C@@H](CCC(=O)NCCCC[C@H](NC(=O)COCC(=O)NCCCOCCOCCOCCCNC(=O)COCC(=O)NCCCOCCOCCOCCCNC(=O)[C@H](CCCCNC(C)=O)NC(=O)[C@H](CCCCN)NC(=O)[C@H](CCCNC(=N)N)NC(=O)C(C)(C)NC(=O)[C@H](CO)NC(=O)[C@H](Cc1c[nH]c2ccccc12)NC(=O)[C@@H](NC(=O)[C@H](CO)NC(=O)[C@H](CCC(N)=O)NC(=O)CNC(=O)[C@H](CCC(=O)O)NC(=O)C(C)(C)NC(=O)C(C)(C)NC(=O)[C@@H](NC(=O)[C@H](CCC(N)=O)NC(=O)[C@H](C)NC(=O)[C@H](CCCNC(=N)N)NC(=O)[C@@H](NC(=O)[C@H](CCCCN)NC(=O)[C@H](CCC(=O)O)NC(=O)[C@H](CCCNC(=N)N)NC(=O)CNC(=O)[C@H](CCC(=O)O)NC(=O)[C@H](CC(C)C)NC(C)=O)C(C)C)[C@@H](C)CC)[C@@H](C)O)C(N)=O)C(=O)O)C(=O)O)C(=O)O
# Molecular target: T1, RXFP1 receptor
# Test: cell-based or functional assay
Binder,"EC50 (nM), OVCAR 5 cells (cAMP) [nM]","EMax, OVCAR 5 cells (cAMP) [%]"
Ac-LEGREKVRAK(Ac)I[Aib][Aib]EG[Nle]STWS[Aib]RKK(Ac)[PEG8′]K([γGlu-γGlu-γGlu-Palmitoyl])-NH2 [peptide of SEQ ID NO: 181],1.63,79
Ac-LEGREKVRAK(Ac)I[Aib][Aib]EGQSTFS[αMeK]RAK(Ac)[PEG2′][PEG2′][PEG2′][PEG2′][γGlu][γGlu]K([γGlu-γGlu-Palmitoyl])-NH2 [peptide of SEQ ID NO: 185],0.05,100
Ac-LEGREKVRAK(Ac)I[Aib][Aib]EGQSTWS[Aib]RKK(Ac)K([PEG2′-PEG2′-PEG2′-PEG2′-γGlu-γGlu-γGlu-γGlu-Stearoyl])-NH2 [peptide of SEQ ID NO: 180],1.18,84
Ac-LEGREKVRAK(Ac)I[Aib][Aib]EG[Nle]STFS[αMeK]RAK(Ac)K([TTDS″-TTDS″-TTDS″-γGlu-γGlu-γGlu-Palmitoyl])-NH2 [peptide of SEQ ID NO: 183],0.08,94
Ac-LEGREKVRAK(Ac)I[Aib][Aib]EGQSTFS[αMeK]RAK(Ac)[PEG2′][PEG2′][PEG2′][PEG2′]K([γGlu-γGlu-γGlu-γGlu-Pentadecanoyl])-NH2 [peptide of SEQ ID NO: 182],0.19,99
Ac-LEGREKVRAK(Ac)I[Aib][Aib]EG[Nle]STWS[Aib]RKK(Ac)K([PEG2′-PEG2′-PEG2′-γGlu-γGlu-γGlu-Myristoyl])-NH2 [peptide of SEQ ID NO: 178],17.6,93
Ac-LEGREKVRAK(Ac)I[Aib][Aib]EGQSTYS[Aib]RKK(Ac)[PEG2′][PEG2′][PEG2′]K([γGlu-γGlu-γGlu-Palmitoyl])-NH2 [peptide of SEQ ID NO: 179],19.9,80
B1,1.5,91

# Reference: US20190233493A1 (Sanofi, published 2019)
